Laboratory results taken from the RNAGym collection of RNA variant scans (doi:10.1073/pnas.2313332121).
Variants at the floor of the assay were thinned out.

B1: TPR 5TU (parent)
chain: GGAUCUUCUCGAUCUAACAAAAAAGACAAAUCUGCCACAAAGCUUGAGAGCAUCUUCGGAUGCAGAGGCGGCAGCCUUCGGUGGCGCGAUAGCGCCAACGUUCUCAACUAUGACACGCAAAACGCGUGCUCCGUUGAAUGGAGUUUAUCAUG

Variants of: B1
Assay: polymerase ribozyme fitness, log enrichment relative to wild type (log ratio); higher = more active; in vitro selection for triplet polymerase activity
How it was run: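 Libraries of mutants in each subunit of a heterodimeric triplet polymerase ribozyme were generated by PCR and transcribed. In triplicate, each went through one in vitro selection round: annealing with biotinylated primer, partner subunit and triplets; frozen incubation at −7 °C; gel excision of extended constructs; streptavidin-bead capture; RT-PCR. Fitness, taken from Illumina sequencing of input and output libraries, is the logarithm of a genotype's enrichment over wild-type enrichment, averaged across replicates with inverse-variance weights. The logarithm is base 2, and genotypes needed ≥10 input reads and ≥1 read per output to be kept.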

Variant	polymerase ribozyme fitness (log ratio)
GGAUCUUCUCGAUCUAACAAAAAAGACAAAUCUGCCACAAAGCUAGAGAGCAUCUUCGGAUGCAGAGGCGGCAGCCUUCGGUGGGGCGAUAGCGCCAACGUUCUCAACUAUGACACGCAAAACGCGUGCUCCGUUGAAUGGAGUUUAUCAUG [U45A C85G]	-3.95
GGAUCUUCUCGAUCUAACAAAAAAGACAAAUCUGCCACAAAGCUCGAGAGCAUCUUCGGAUGCAGAGGCGGCAGCCUUCGGUGACGCGAUAGCGCCAACGUUCUCAACUAUGACACGCAAAACGCGUGCUCCGUUGAAUGGAGUUUAUCAUG [U45C G84A]	-1.08
GGAUCUUCUCGAUCUAACAAAAAAGACAAAUCUGCCACAAAGCUAGAGAGCAUCUUCGGAUGCAGAGGCGGCAGCCUUCGGUGGCGCGAUAGUGCCAACGUUCUCAACUAUGACACGCAAAACGCGUGCUCCGUUGAAUGGAGUUUAUCAUG [U45A C93U]	-3.15
GGAUCUUCUCGAUCUAACAAAAAAGACAAAUCUGCCACAAAGCUAGAGAGCAUCUUCGGAUCCAGAGGCGGCAGCCUUCGGUGGCGCGAUAGCGCCAACGUUCUCAUCUAUGACACGCAAAACGCGUGCUCCGUUGAAUGGAGUUUAUCAUG [U45A G62C A107U]	≤ -4.2
GGAUCUUCUCGAUCUAACAAAAAAGACAAAUCUGCCACAAAGCUAGUGAGCAUCUUCGGAUGCAGAGGCGGCAGCCGUCGGUGGCGCGAUAGCGCCAACGUUCUCAACUAUGAGACGCAAAUCGCGUGCUCCGUUGAAUGGAGUUUAUCAUG [U45A A47U U77G C114G A122U]	≤ -4.2
GGAUCUUCUCGAUCUAACAAAAAAGACAAAUCUGCCACAAAGCUAGAGAGCAUCUUCGGAUGCAGAAGCGGCAGCCUUAGGUGGCGCGAUUGCGCCAACGUUCUCAACUAUGACACGCAAGACGCGUGCUCCGUUGAAUGGAGUUUAUCAUG [U45A G67A C79A A91U A121G]	≤ -4.2
GGAUCUUCUCGAUCUAACAAAAAAGACAAAUCUGCCACAAAGCUAGAGAGCAUCUUCGGAUGCAGAGGCGGCAGCCUUCGGUGGCGCGAUAGAGCCAACGUUCUCAACUAUGACACGCAAAACGCGUGCUCCGUUGAAUGAAGUUUAUCAUG [U45A C93A G141A]	-4.05
GGAUCUUCUCGAUCUAACAAAAAAGACAAAUCUGCCACAAAGCUAGAGAGCAUCUUAGGAUGCAGAGGCGGCAGCCUUCGGUGGCGCGAUAGCGUCAACGUUCUCAACUAUGACACGCAAAACGCGUGCUCCGUUGAAUGGAGUUUAUCAUG [U45A C57A C95U]	-2.12
GGAUCUUCUCGAUCUAACAAAAAAGACAAAUCUGCCACAAAGCUAGAGAGCAUCUUCGGAUGCAGAGGCGGCAGCCUUCGGUGGCGCGAUAGCGCCAACGUUCUCAACUAUGAUACGCAAAACGCGUGCUCCGUUGAAUGGAGUUUAUCAUG [U45A C114U]	-4.01
GGAUCUUCUCGAUCUAACAAAAAAGACAAAUCUGCCACAAAGCUAGAGAGCAUCUUCGGAUGCAGAGGCGGCAGCCUUCGGUGGCGCGAUAGCGCCAACGUUCUCAACCAUGACACGCAAAACGCGUGCUCCGUUGAAUGGAGUUUAUCAUG [U45A U109C]	-3.44
GGAUCUUCUCGAUCUAACAAAAAAGACAAAUCUGCCACAAAGCUCGAGAGCGUCUUAGGAUGCAGAGGCGGCAGCCUUCGGUGGCGCGAUACCGCCAACGUUCUCAACUAUGACACGCAAAACGCGUGCUCCGUUGAAUGGAGUUUAUCAUG [U45C A52G C57A G92C]	-2.64
GGAUCUUCUCGAUCUAACAAAAAAGACAAAUCUGCCACAAAGCUAGAUAACAUCUUCGCAUGCAGAGUCGGCAGCCUUCGGUGGCGCGAUAGCGCUAACGUUCUCAACUAUGACACGCAAAACGCGUGCUACGUUGCAUGGAGUUUAUCAUA [U45A G48U G50A G59C G68U C96U C131A A137C G152A]	≤ -4.2
GGAUCUUCUCGAUCUAACAAAAAAGACAAAUCUGCCACAAAGCUAGAGAGCAUCUUCGGAUGCAGAGGCGGCAGCCUUCGGUGGCGCGAUAGCACCAACGUUCUCAACUAUGACACGCAAAACGCGUGCUCCGUUGAAUGGAGUUUAUCAUG [U45A G94A]	-2.81
GGAUCUUCUCGAUCUAACAAAAAAGACAAAUCUGCCACAAAGCUCAAGAGCAUCUUCGGAGCCAGAGGCGGCAGCAUUCGGUGGCGCGAUAGCGCCAACGUUCUCAACUAUGACACGCAAAACGCGUGCUCCGUUGAAUGGAGUUUAUCAUG [U45C G46A U61G G62C C76A]	≤ -4.2
GGAUCUUCUCGAUCUAACAAAAAAGACAAAUCUGCCACAAAGCUAGAGAGCGUCUUCGGAUGCAGAGGCGGCAGCCUUCGGUGGCGCGAUAGCGCCAACGUUCUCAACUAUGACAGGCAAAACGCGUGCUCCGUUGAAUGGAGUUUAUCAUG [U45A A52G C116G]	-3.56
GGAUCUUCUCGAUCUAACAAAAAAGACAAAUCUGCCACAAAGCUAGAGAACAUCGUCGGAUGCAGAGGCGGCAGCCUUCGGUGGCGGGAUAGCCCCAACGUUCUCAACUAUGACACGCAAAACGCGUGCUCCGUUGAAUGGAGUUUAUCAUG [U45A G50A U55G C87G G94C]	≤ -4.2
GGAUCUUCUCGAUCUAACAAAAAAGACAAAUCUGCCACAAAGCUAGAGAGCGUCUUCGGAUGCAGAGGCGGCAGCCUUCGGUGGCGCGAUAGCGCCAACGUUCUCAACUAUGACACGAAAAACGCGUGCUCCGUUGAAUGGAGUUUAUCAUG [U45A A52G C118A]	-4.18
GGAUCUUCUCGAUCUAACAAAAAAGACAAAUCUGCCACAAAGCUAGAGAGCGUCUUCGGAUGGUGAGGCCGCAGCCUUCGGUGGCGCGCUAGCGCCAACGGUCUCAACUAUGACAAGCAAAACGCGUGCUCCGUUGAAUGGAGUUUAUCAUG [U45A A52G C63G A64U G70C A89C U101G C116A]	≤ -4.2
GGAUCUUCUCGAUCUAACAAAAAAGACAAAUCUGCCACAAAGCUAGAGAGCAUCUUCGGGUGCAGAGGCGGCAGCCUUCGGUGGCGCGAUAGCGCCAACGUUCUCAACUAUGACACGCAAAACGCGUGCUCCGUUGAAUGGAGUUUAUCAUG [U45A A60G]	-2.47

Variant	polymerase ribozyme fitness (log ratio)
GGAUCUUCUCGAUCUAACAAAAAAGACAAAUCUGCCACAAAGCUAGAGAGCAUCUUCGGAUGCAGAGGCGGCAGCCGUCGGUGUCGCGAUAGCGCCAACGUUCUCAACUAUGACACGUAAAACGCGUGCUCCGUUGAAUGGAGUUUAUCAUG [U45A U77G G84U C118U]	≤ -4.2
GGAUCUUCUCGAUCUAACAAAAAAGACAAAUCUGCCACAAAGCUAGAGAGCAUCUUCGGAUGCAAAGGCGGCAGCCUUCGGAGGCGCGAUAGCGCCAACGUUCUCUACUAUGACACGCAAAACGCGUGCUCCGUUGAAUGGAGUUUAUCAUG [U45A G65A U82A A106U]	-0.414
GGAUCUUCUCGAUCUAACAAAAAAGACAAAUCUGCCACAAAGCUAGAGAGCAUCUUCAGAUGCAGAGGCGGCAGCCUUCGGUAGCGCGAUAGCGCCAACGUUCUCAACUAUGACACGCAAAACGCGUGCUCCGUUGAAUGGAGUUUACCAUG [U45A G58A G83A U148C]	≤ -4.2
GGAUCUUCUCGAUCUAACAAAAAAGACAAAUCUGCCACAAAGCUAGAGAGCAUCUUCGGAUGCAGAGGCGGCAGCCUUCGGUGGCGCGAUAGCGCCAACGUUCUCGACUAUGACACGCAAAACGCGUGCUCCGUUGAAUGGAGUUUAUCAUG [U45A A106G]	-1.7
GGAUCUUCUCGAUCUAACAAAAAAGACAAAUCUGCCACAAAGCUAGCGAGCAUAUUAGGAUGCAGAGGCGGCAGCCUUCGGUGGCGCGACAGCGCCAACGUUCUCAACUAUGACACGCAAAACGCGUGCUCCGUUGAAUCGAGUUUAUCAUG [U45A A47C C54A C57A U90C G140C]	≤ -4.2
GGAUCUUCUCGAUCUAACAAAAAAGACAAAUCUGCCACAAAGCUAGAGAGCAUCUUCGGAUGCAGAGGCGGCAGCCUUCGGUCGCGCGAUAGCGCCAACGUUCUUAACUAUGACACGCAAAACGCGUGCUGCGUUGAAUGGAGUUUAUCAUG [U45A G83C C105U C131G]	≤ -4.2
GGAUCUUCUCGAUCUAACAAAAAAGACAAAUCUGCCACAAAGCUAGAGAGCAUCUUCGGAUGCUGACGCGGCAACCUUCGGUAGCGCGAUAGCGCCAACGUUCUCAACUAUGACACGCAGAACGCGUGCUCCGUUGAAUGGAGUUUAUCAUG [U45A A64U G67C G74A G83A A120G]	≤ -4.2
GGAUCUUCUCGAUCUAACAAAAAAGACAAAUCUGCCACAAAGCUAGAGAGCAUCUUCGGAUGCAGAGGCGGCAGCCUUCGGUGGUGCGAUAGCGCCAACGUUCUCAACUAUGACACGGAAAACGCGUGCUCCGUUGAUUGGAGUUUAUCAUG [U45A C85U C118G A138U]	-4.16
GGAUCUUCUCGAUCUAACAAAAAAGACAAAUCUGCCACAAAGCUAGAGAGCAUCUUCGGAUGCAGAGGCGGCAGCCGUCGGUGGCUCGAUAGCGCCAACGUUCACAACUAUGACACGCAAAAAGCGUGCUCCGUUGAAUGGAGUUUAUCAUG [U45A U77G G86U U104A C123A]	≤ -4.2
GGAUCUUCUCGAUCUAACAAAAAAGACAAAUCUGCCACAAAGCUAGAGAGCAUCUUCGGAUGCAGAGGCGGCAGCCUUGGGUGCCGCGAUAGGGCCAACGUGCUCAACUAUGACACGCAAAACGCGUGCUCCGUUGAAUGGAGUUUAUCAUG [U45A C79G G84C C93G U102G]	≤ -4.2
GGAUCUUCUCGAUCUAACAAAAAAGACAAAUCUGCCACAAAGCUAGAGGGCAUCUUCGGAUGCAGAGGCGGCAGCCUUCGGUAGUGCGAUAGCGCCAAGGUUCCCAACUAUGACACGCAAAACGCGUGCUCCGUUGAAUGGAGUUUAUCAUG [U45A A49G G83A C85U C99G U104C]	≤ -4.2
GGAUCUUCUCGAUCUAACAAAAAAGACAAAUCUGCCACAAAGCUAGAGGGCAUCUUCGGAUGCAGAGGCGGCAGCCUUCGGUGUCGCGAUAGCGCCAACGUUCUCAACUAUGACGCGCAGAACGCGUGCUCCGUUGAAUGGAGUUUAUCAUG [U45A A49G G84U A115G A120G]	≤ -4.2
GGAUCUUCUCGAUCUAACAAAAAAGACAAAUCUGCCACAAAGCUAGAGAGCAUCUGCGGAUGCAGCCGCGUCAGCCUUCGGUGGGGCUGUAGCGCCAAUGUUCUCAACUGUGACACGCAAAACGCGUGCUCGGUUGAAUGGAGUUUAUCAUG [U45A U56G A66C G67C G71U C85G G88U A89G C99U A110G C132G]	≤ -4.2
GGAUCUUCUCGAUCUAACAAAAAAGACAAAUCUGCCACAAAGCUACAGAGCAUCUUCGGAUGCAGAGGCGGCAGCCUUCGGUGGGGCCAUAGUGCCAACGUUCUCAACUAUGACCCGCAAAACGCGUGCUCCGUUGAAUGGAGUUUAUCGUG [U45A G46C C85G G88C C93U A115C A150G]	≤ -4.2
GGAUCUUCUCGAUCUAACAAAAAAGACAAAUCUGCCACAAAGCUAGAGAGCAUCAUCGGAUGCAGAGGCGGCAGCCUUCGGUGGCGCGAUAGCGCCAACGUUCUCAACUAUGACACGCAAAACGCGUGCUCCGUUGAAUGGAGUUUAUCAUG [U45A U55A]	-2.95
GGAUCUUCUCGAUCUAACAAAAAAGACAAAUCUGCCACAAAGCUAGAGAGCAUCUUCGGAUGCAGAGGCGGCAGCCUUCGGUCGCGCGAUAGCGCCAACGUUCUCAACUAUGACACGCAAAACGCGUGCUCCGUUGAAUGGAGUUUAUCAUG [U45A G83C]	-3.51
GGAUCUUCUCGAUCUAACAAAAAAGACAAAUCUGCCACAAAGCUACAGAGCAUCUUCGGAUGCAGAGGCGGCAGCCUUCGGUGGCGCGAUAGCGCCAUCGUUCUCAACUAUGACACGCAAAACGCGUGCUCCGUUGAAUGGAGUUUAUCAUG [U45A G46C A98U]	≤ -4.2
GGAUCUUCUCGAUCUAACAAAAAAGACAAAUCUGCCACAAAGCUAGAGAACAUCUUCGGAUGCAGAGGCGGCAGCCUUCGGUGGCGCGAUAGCGCCAACGUUCUCAACUAUGACACGCAAAACGCGUGCUCCGUGGAAUGGAGUUUAUCAUG [U45A G50A U135G]	≤ -4.2
GGAUCUUCUCGAUCUAACAAAAAAGACAAAUCUGCCACAAAGCUAGAGAGCAUCUUCGGAUGCAGAGGCGGCAGCUUUCGGUGGCGCGAUAGCGCCAACGUUCUCAACUAUGACACGCAAAACGGGUGCUCCGUUGAAUGGAGUUUAUCAUG [U45A C76U C125G]	-3.81
